Molecular target: actin filament
Test: cell-based or functional assay

Row | sliding velocity (in vitro sliding filament assay) | Substance
1 | 16.2 µm/sec | Flag-chimera XI protein (chimeric myosin XI: Chara corallina myosin XI motor domain on the A. thaliana MYA2 backbone, FLAG-tagged)
2 | 7 µm/sec | wild-type A. thaliana myosin XI-2 (MYA2), expressed from the Flag-MYA2 XI gene (from UniProt Q9LKB9 1-1505)

Source: patent US20130007915A1
